Publication PMC7494424 (Nature methods, 2019)

B1: P. falciparum M18 aspartyl aminopeptidase (enzyme, UniProt Q8I2J3 1-570, looked up)
chain: MDKKAREYAQDALKFIQRSGSNFLACKNLKERLENNGFINLSEGETWNLNKNEGYVLCKENRNICGFFVGKNFNIDTGSILISIGHIDSCALKISPNNNVIKKKIHQINVECYGSGLWHTWFDRSLGLSGQVLYKKGNKLVEKLIQINKSVLFLPSLAIHLQNRTRYDFSVKINYENHIKPIISTTLFNQLNKCKRNNVHHDTILTTDTKFSHKENSQNKRDDQMCHSFNDKDVSNHNLDKNTIEHLTNQQNEEKNKHTKDNPNSKDIVEHINTDNSYPLLYLLSKELNCKEEDILDFELCLMDTQEPCFTGVYEEFIEGARFDNLLGSFCVFEGFIELVNSIKNHTSNENTNHTNNITNDINDNIHNNLYISIGYDHEEIGSLSEVGARSYCTKNFIDRIISSVFKKEIHEKNLSVQEIYGNLVNRSFILNVDMAHCSHPNYPETVQDNHQLFFHEGIAIKYNTNKNYVTSPLHASLIKRTFELYYNKYKQQIKYQNFMVKNDTPCGSTVGSMVAANLSMPGIDIGIPQLAMHSIREIAAVHDVFFLIKGVFAFYTYYNQVLSTCVHDK
B2: P. falciparum glutamine synthetase (enzyme, UniProt C0H551 1-543, looked up)
chain: MKSVSFSNNAELYEYIKDKKNDVEIVACIITNLLGTYFKCFFYVKEITLNKLESGFSFDASSIKLCSDTEVSDFFIKVDHSTCYLEECDGKNILNIMCDIKRYNGFDYYKCPRTILKKTCEFVKNEGIADKVCIGNELEFFIFDKVNYSLDEYNTYLKVYDRESFSCKNDLSSIYGNHVVNKVEPHKDHFNNPNNEYLINDDSKKVKKKSGYFTTDPYDTSNIIKLRICRALNDMNINVQRYHHEVSTSQHEISLKYFDALTNADFLLITKQIIKTTVSSFNRTATFMPKPLVNDNGNGLHCNISLWKNNKNIFYHNDPSTFFLSKESFYFMYGIVKHAKALQAFCNATMNSYKRLVPGFETCQKLFYSFGSRSAVIRLSLINYSNPSEKRIEFRLPDCANSPHLVMAAIILAGYDGIKSKEQPLVPFESKDNHFYISSIFSKYVQHPENFNILTHALEGYESLHTINESPEFKNFFKCEEPQGISFSLVESLDALEKDHAFLTVNNIFTEEMIQEYIKFKREEIDAYNKYVNAYDYHLYYEC

Target: the molecule itself
Assay: cryo-EM structure

Protein	stoichiometry N
B1	12
B2	12
